Source: patent US20230251254A1, “METHOD FOR EVALUATING INTERACTION BETWEEN IMMOBILIZED SUBSTANCE IMMOBILIZED DIRECTLY OR INDIRECTLY ON SUBSTRATE AND PROXIMITY-DEPENDENT MODIFYING ENZYMELABELED SUBSTANCE TO BE ANALYZED” (CELLFREE SCIENCES CO.,LTD., priority 2020, published 2023)
Residue numbers refer to the chain shown, from its start. Names may count otherwise.

What was measured:
[1] = tested on: interaction between TP53 and MDM2 or between Iκβα and RelA; test: Comparison of altered biotinylation enzymes by the method of Example 2 (Example 4); assay type: biochemical; conditions: for specificity / non-specific signal of labeling: luminescence detection; for labeling activity on introduction of Q141R mutation into AVVA mutant: compared with AVVA mutant without Q141R
Procedure: In this Example, various altered biotinylation enzymes were evaluated by the method used in Example 2.
Specifically, by a method similar to that for AirID (SEQ ID NO: 3) in Example 2, the interaction between TP53 and MDM2 or between Iκβα and RelA was analyzed using BioID (SEQ ID NO: 1), TurboID (SEQ ID NO: 2), an AirID-S118G mutant (SEQ ID NO: 12), an AWA-R118S mutant (SEQ ID NO: 13), an AVVA-R118G mutant (SEQ ID NO: 14), an AWA-R118S, Q141R mutant (SEQ ID NO: 15), and an AVVA-R118G, Q141R mutant (SEQ ID NO: 16).
The results in the figures were standardized in that the dispensation amount of the magnetic beads on the wells of the plate was 75 nL. An exposure time at the time of luminescence detection with LAS4000 (manufactured by GE Healthcare) was set to 3 minutes for TurboID, and 10 minutes for the protein of any other sequence identification number. A signal value was obtained from a measurement image through use of Array-Pro Analyzer™.

FLAG-GST-fused MDM2 [2] = target: T1, FLAG-GST-fused MDM2 (UniProt P23804 1-489); test: proximity-biotinylation bead array, streptavidin-HRP luminescence; labeling 26°C 3 h; exposure 10 min
T1 construct: Immobilized on glutathione magnetic beads on the non-denatured protein array; Order of the parts follows the printed name FLAG-GST; also called FLAG-GST-fused immobilized substance (MDM2); not shown: FLAG tag protein; GST protein (glutathione S-transferase tag)

FLAG-GST-fused RelA [3] = target: T2, FLAG-GST-fused RelA (UniProt Q04206 1-551); test: as above
T2 construct: Immobilized on glutathione magnetic beads on the non-denatured protein array; Order of the parts follows the printed name FLAG-GST; also called FLAG-GST-fused immobilized substance (RelA); not shown: FLAG tag protein; GST protein (glutathione S-transferase tag)

FLAG-GST-fused MDM2 [4] = target: T1, FLAG-GST-fused MDM2; test: proximity-biotinylation bead array, streptavidin-HRP luminescence; labeling 26°C 1 h; exposure 10 min
FLAG-GST-fused RelA [5] = target: T2, FLAG-GST-fused RelA; test: as above
FLAG-GST-fused MDM2 [6] = target: T1, FLAG-GST-fused MDM2; test: proximity-biotinylation bead array, streptavidin-HRP luminescence; labeling 26°C 30 min; exposure 10 min
FLAG-GST-fused RelA [7] = target: T2, FLAG-GST-fused RelA; test: as above
FLAG-GST-fused MDM2 [8] = target: T1, FLAG-GST-fused MDM2; test: proximity-biotinylation bead array, streptavidin-HRP luminescence; labeling 26°C; exposure 10 min

T1 sequence (P23804 whole entry, the tested form may be a part): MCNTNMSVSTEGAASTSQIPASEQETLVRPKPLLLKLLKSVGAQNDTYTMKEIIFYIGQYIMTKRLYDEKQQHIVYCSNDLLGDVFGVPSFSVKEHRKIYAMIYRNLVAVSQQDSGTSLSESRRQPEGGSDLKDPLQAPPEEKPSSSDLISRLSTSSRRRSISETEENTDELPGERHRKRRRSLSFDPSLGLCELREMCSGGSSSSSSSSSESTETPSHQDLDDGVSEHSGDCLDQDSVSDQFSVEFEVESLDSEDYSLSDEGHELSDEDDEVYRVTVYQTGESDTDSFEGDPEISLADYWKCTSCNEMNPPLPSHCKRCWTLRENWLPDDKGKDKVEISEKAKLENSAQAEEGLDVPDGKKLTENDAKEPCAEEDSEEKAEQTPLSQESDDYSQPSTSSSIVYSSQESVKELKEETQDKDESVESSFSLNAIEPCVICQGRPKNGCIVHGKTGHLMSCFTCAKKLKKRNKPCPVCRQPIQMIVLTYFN
T2 sequence (Q04206 other isoform, or with tags, fused parts or gaps): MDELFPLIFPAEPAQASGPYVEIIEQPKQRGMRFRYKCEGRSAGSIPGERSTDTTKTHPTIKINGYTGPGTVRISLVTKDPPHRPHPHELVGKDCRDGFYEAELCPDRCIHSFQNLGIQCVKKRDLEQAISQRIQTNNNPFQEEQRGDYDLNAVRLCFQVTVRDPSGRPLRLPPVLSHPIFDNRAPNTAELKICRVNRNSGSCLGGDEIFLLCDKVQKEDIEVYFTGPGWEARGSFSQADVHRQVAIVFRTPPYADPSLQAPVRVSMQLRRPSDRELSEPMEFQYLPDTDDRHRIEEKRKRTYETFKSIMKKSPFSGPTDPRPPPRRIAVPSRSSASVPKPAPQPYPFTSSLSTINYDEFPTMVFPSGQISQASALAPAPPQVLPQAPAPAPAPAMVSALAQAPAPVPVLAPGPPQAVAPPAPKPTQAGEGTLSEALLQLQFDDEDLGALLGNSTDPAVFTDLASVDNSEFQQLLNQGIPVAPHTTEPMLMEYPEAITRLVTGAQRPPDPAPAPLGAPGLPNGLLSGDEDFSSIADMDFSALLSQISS

“BioID: proximity-dependent biotin ligase, SEQ ID NO: 1 [reference compound]” was tested, and the “specificity / non-specific signal of labeling” value ([1]; 75 nL magnetic beads) was “low non-specificity” and the biotin modification activity ([1]; compared with the other enzymes) was “lower biotin modification activity than the other enzymes”.

B1: AirID-S118G mutant-fused Iκβα (other)
fusion protein: MKDNTVPLTLISILADGEFHSGEQLGEQLGMSRAAINKHIKTLRDWGVDVFRVQGKGYCLPEPIQLLDEEKIRQQLDEGSVTVLPVIDSTNQYLLDRLDELTSGDVCIAEYQQAGRGGRGRKWFSPFGANLYLSMYWRLEQGPAAAMGLSLVIGIVMAETLQKLGADGVRVKWPNDLYLNDRKLAGILVEMTGKTGDAAHIVIGAGINLSMREPETDEVDQSWINLQEAGITIDRNQLAARLIKDLRSALRQFEQQGLAPFLSRWEALDNFINRPVKLIIGDREIHGIARGINEQGALLLEQDGVIKPWIGGEISLRSAMFQAAERPQEWAMEGPRDGLKKERLLDDRHDSGLDSMKDEEYEQMVKELQEIRLEPQEVPRSSEPWKQQLTEDGDSFLHLAIIHEEKALTMEVIRQVKGDLAFLNFQNNLQQTPLHLAVITNQPEIAEALLGAGCDPELRDFRGNTPLHLACEQGCLASVGVLTQSCTTPHLHSILKATNYNGHTCLHLASIHGYLGIVELLVSLGADVNAQEPCNGRTALHLAVDLQNPDLVSLLLKCGADVNRVTYQGYSPYQLTWGRPSTRIQQQLGQLTLENLQMLPESEDEESYDTESEFTEFTEDELPYDDCVFGGQRLTL
Molecule B1 has a signal value (FLAG-GST-fused MDM2 [2]) of 370, a signal value (FLAG-GST-fused RelA [3]) of 51400 and a signal value (FLAG-GST-fused MDM2 [4]) of 220. The signal value (FLAG-GST-fused RelA [5]) was 10200, the signal value (FLAG-GST-fused MDM2 [6]) was 240 and the signal value (FLAG-GST-fused RelA [7]) was 9570. B1: no binding (FLAG-GST-fused MDM2 [8]).

B2: AVVA-R118S mutant-fused Iκβα (other)
fusion protein: MSEQWSRKREILALLSSGHFVSGEELATQLGISRTAVSKHIAALEEYGVDIYSVKGKGYKLANPISLIDESKLKSAINNRCFYFDEIPSTNGFMLKHAEELKSGDICVAEYQSAGRGSRGRTWVSPYGCHLYFSLYWRFPQGMAQAMGLSLVVACSLVKVLKSFGVDGVGVKWPNDIYLNHKKLAGVLIEMSGQADSECHLVIGIGINMAMSEQQGKKIDQPWSDLSSLTSMPDKTELLIALQKQLKQDLELFEREGLKAFQPRWQEADLFYGKQIKLLMGENQVEGICRGIDEQGAVLLETDDGIQAFIGGEISLRAAMFQAAERPQEWAMEGPRDGLKKERLLDDRHDSGLDSMKDEEYEQMVKELQEIRLEPQEVPRSSEPWKQQLTEDGDSFLHLAIIHEEKALTMEVIRQVKGDLAFLNFQNNLQQTPLHLAVITNQPEIAEALLGAGCDPELRDFRGNTPLHLACEQGCLASVGVLTQSCTTPHLHSILKATNYNGHTCLHLASIHGYLGIVELLVSLGADVNAQEPCNGRTALHLAVDLQNPDLVSLLLKCGADVNRVTYQGYSPYQLTWGRPSTRIQQQLGQLTLENLQMLPESEDEESYDTESEFTEFTEDELPYDDCVFGGQRLTL
In the case of B2, the signal value (FLAG-GST-fused MDM2 [2]) is reported as 330, the signal value (FLAG-GST-fused RelA [3]) is reported as 50000 and the signal value (FLAG-GST-fused MDM2 [4]) is reported as 310. For the same molecule, the signal value (FLAG-GST-fused RelA [5]) was 11100, the signal value (FLAG-GST-fused MDM2 [6]) was 320 and the binding result (FLAG-GST-fused MDM2 [8]) was “no binding”.

B3: AVVA-R118G mutant-fused Iκβα (other)
fusion protein: B2 fusion protein with S118G
B3 showed a signal value (FLAG-GST-fused MDM2 [2]) of 310, a signal value (FLAG-GST-fused RelA [3]) of 39400 and a signal value (FLAG-GST-fused MDM2 [4]) of 230. The signal value (FLAG-GST-fused MDM2 [6]) was 140, the signal value (FLAG-GST-fused RelA [7]) was 6900 and the binding result (FLAG-GST-fused MDM2 [8]) was “no binding”.

B4: AVVA-R118G,Q141R mutant-fused Iκβα (other)
fusion protein: B2 fusion protein with S118G, Q141R
With B4 the signal value (FLAG-GST-fused MDM2 [2]) was 430, the signal value (FLAG-GST-fused RelA [3]) was greater than 65000 and the signal value (FLAG-GST-fused MDM2 [4]) was 280. For the same molecule, the signal value (FLAG-GST-fused RelA [5]) was 10100, the signal value (FLAG-GST-fused MDM2 [6]) was 550 and the binding result (FLAG-GST-fused MDM2 [8]) was “no binding”.

B5: AWA-R118S, Q141R mutant: proximity-dependent biotin ligase, SEQ ID NO: 15 (protein)
chain: MSEQWSRKREILALLSSGHFVSGEELATQLGISRTAVSKHIAALEEYGVDIYSVKGKGYKLANPISLIDESKLKSAINNRCFYFDEIPSTNGFMLKHAEELKSGDICVAEYQSAGRGSRGRTWVSPYGCHLYFSLYWRFPRGMAQAMGLSLVVACSLVKVLKSFGVDGVGVKWPNDIYLNHKKLAGVLIEMSGQADSECHLVIGIGINMAMSEQQGKKIDQPWSDLSSLTSMPDKTELLIALQKQLKQDLELFEREGLKAFQPRWQEADLFYGKQIKLLMGENQVEGICRGIDEQGAVLLETDDGIQAFIGGEISLRAA
modifications: AVVA-R118S,Q141R
B5 was tested, and the “specificity / non-specific signal of labeling” value ([1]; 75 nL magnetic beads) was “extremely high specificity” and the “labeling activity on introduction of Q141R mutation into AVVA mutant” value [1] was “enhances its labeling activity”.

B6: AVVA-R118G, Q141R mutant: proximity-dependent biotin ligase, SEQ ID NO: 16 (protein)
chain: B5 chain with S118G
modifications: AVVA-R118G,Q141R
With B6 the “specificity / non-specific signal of labeling” value ([1]; 75 nL magnetic beads) was “extremely high specificity” and the “labeling activity on introduction of Q141R mutation into AVVA mutant” value [1] was “enhances its labeling activity”.

B7: TurboID: proximity-dependent biotin ligase, SEQ ID NO: 2 (protein)
chain: MKDNTVPLKLIALLANGEFHSGEQLGETLGMSRAAINKHIQTLRDWGVDVFTVPGKGYSLPEPIPLLNAKQILGQLDGGSVAVLPVVDSTNQYLLDRIGELKSGDACIAEYQQAGRGSRGRKWFSPFGANLYLSMFWRLKRGPAAAIGLGPVIGIVMAEALRKLGADKVRVKWPNDLYLQDRKLAGILVELAGITGDAAQIVIGAGINVAMRRVEESVVNQGWITLQEAGINLDRNTLAATLIRELRAALELFEQEGLAPYLPRWEKLDNFINRPVKLIIGDKEIFGISRGIDKQGALLLEQDGVIKPWMGGEISLRSAEK
modifications: TurboID
B7 was tested, and the signal intensity ([1]; 75 nL magnetic beads, exposure 3 minutes for TurboID) was “high signal intensity” and the “specificity / non-specific signal of labeling” value ([1]; 75 nL magnetic beads) was “a certain signal (non-specific) is found even for an interaction that should be negative”.

B8: AirID: proximity-dependent biotin ligase, SEQ ID NO: 3 (protein)
chain: MKDNTVPLTLISILADGEFHSGEQLGEQLGMSRAAINKHIKTLRDWGVDVFRVQGKGYCLPEPIQLLDEEKIRQQLDEGSVTVLPVIDSTNQYLLDRLDELTSGDVCIAEYQQAGRGSRGRKWFSPFGANLYLSMYWRLEQGPAAAMGLSLVIGIVMAETLQKLGADGVRVKWPNDLYLNDRKLAGILVEMTGKTGDAAHIVIGAGINLSMREPETDEVDQSWINLQEAGITIDRNQLAARLIKDLRSALRQFEQQGLAPFLSRWEALDNFINRPVKLIIGDREIHGIARGINEQGALLLEQDGVIKPWIGGEISLRSA
modifications: AirID
B8 was tested, and the “specificity / non-specific signal of labeling” value ([1]; 75 nL magnetic beads) was “extremely high specificity”.

B9: AirID-S118G mutant: proximity-dependent biotin ligase, SEQ ID NO: 12 (protein)
chain: B8 chain with S118G
modifications: AirID_S118G
B9 was tested, and the “specificity / non-specific signal of labeling” value ([1]; 75 nL magnetic beads) was “extremely high specificity”.

B10: AWA-R118S mutant: proximity-dependent biotin ligase, SEQ ID NO: 13 (protein)
chain: B5 chain with R141Q
modifications: AVVA-R118S
In the case of B10, the “specificity / non-specific signal of labeling” value ([1]; 75 nL magnetic beads) is reported as “extremely high specificity”.

B11: AVVA-R118G mutant: proximity-dependent biotin ligase, SEQ ID NO: 14 (protein)
chain: B5 chain with S118G, R141Q
modifications: AVVA-R118G
B11 was tested, and the “specificity / non-specific signal of labeling” value ([1]; 75 nL magnetic beads) was “extremely high specificity”.
